Test [1] deals with T1, recombinant human IL4Rα-his (human, UniProt P24394 26-231, limits assumed, biotin-labeled in the capture ELISA).
T1 construct: In-house made; not shown: His tag at the C-terminus
As to the kind of experiment: SPR Biacore T200; antibody captured on anti-human IgG CM5 chip, IL4Rα-his as analyte; 1:1 Langmuir fit. The gist of the method:
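Antibodies captured on anti-human IgG CM5 chip (bispecifics at 66.67 nM, controls 10 μg/mL), then serially diluted recombinant human IL4Rα-his (C-terminal His tag) in HBS EP flowed at 30 μL/min. Association and dissociation curves fit to 1:1 Langmuir model.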
On the technique in general: Surface plasmon resonance follows binding to a sensor surface in real time, without labels.

The target of test [2] is T2, recombinant human TSLP-his (human, UniProt Q969D9 29-159, biotin-labeled in the ELISAs).
T2 construct: In-house made; not shown: His tag at the C-terminus
Nature of the test: SPR Biacore; TSLP-his amine-coupled to CM5 chip, antibody as analyte; 1:1 Langmuir fit. As for the experimental part: Un-reacted moieties on the biosensor surface were blocked with ethanolamine. Then, serially diluted purified bispecific antibodies and the controls (2-fold serial dilution in HBS-EP⁺ buffer starting at 100 nM) were respectively flowed onto the chip at a flow rate of 30 μL/min. The antigen-antibody association kinetics was followed for 4 minutes and the dissociation kinetics was followed for 13 minutes.

For test [3], the target named is T2, recombinant human TSLP-his. Nature of the test: competitive ELISA: antibody pre-mixed with biotin human TSLP-his; blocked binding to coated TSLPR-Fc/IL7Ra-Fc. As for the experimental part: Briefly, 100 μL human TSLPR-Fc proteins (SEQ ID NO: 34-SEQ ID NO: 38 fusion, prepared in-house) at 1 μg/mL in PBS, and 100 μL human IL7Ra-Fc proteins (SEQ ID NO: 35-SEQ ID NO: 38 fusion, prepared in-house) at 1 μg/mL in PBS were coated on 96-well micro plates overnight at 4° C. The next day, plates were washed with wash buffer (PBS+0.05% Tween-20, PBST), and blocked with 5% w/v non-fatty milk in PBST for 2 hours at 37° C. Plates were then washed again using wash buffer.
After incubation at 37° C. for 40 minutes, plates were washed 4 times using wash buffer. […] Plates were washed again using wash buffer. Finally, TMB was added and the reaction was stopped using 1M H₂SO₄. The absorbance was read on a microplate reader using dual wavelength mode with 450 nm for TMB and 630 nm as the reference wavelength, then the OD (450-630) values were plotted against the antibody concentration. Data was analyzed using Graphpad Prism and IC₅₀ values were reported.
Background: An ELISA detects its analyte on a solid surface through an enzyme-linked reagent.

The target in test [4] is T1, recombinant human IL4Rα-his. As to the kind of experiment: dual-binding ELISA: coated human IL4Rα-his, antibody titrated, detection with biotin human TSLP-his and SA-HRP; signal needs both antigens bound. As for the experimental part:
For the dual-binding ELISA, 96-well ELISA plates were firstly coated with 100 μL 1 μg/mL human IL4Rα-his protein (IL4Rα of SEQ ID NO: 33 with His tag at C terminus, prepared in-house) in PBS overnight at 4° C. ELISA plates were washed 4 times with wash buffer (PBS+0.05% Tween-20, PBST) and then blocked with 200 μL/well blocking buffer (5% w/v non-fatty milk in PBST) for 2 hours at 37° C. […] ELISA plates were washed again and incubated with SA-HRP (100 μl/well) for 40 minutes at 37° C. After the final wash, 100 μL/well TMB (Innoreagents) was added. The reaction was stopped 15 minutes later at room temperature with 50 μL/well 1M H₂SO₄, and the absorbance was read on a microplate reader using dual wavelength mode with 450 nm for TMB and 630 nm as the reference wavelength. The OD (450-630) values were plotted against antibody concentration. Data was analyzed using Graphpad Prism and EC₅₀ values were reported.

The target in test [5] is human IL4Rα on HEK293T-IL4R/STAT6/STAT6-Luc LB2 cells (human, UniProt P24394 26-825). Nature of the test: cell-based or functional assay.
The target in test [6] is T2, recombinant human TSLP-his. Nature of the test: capture ELISA: antibody captured on anti-human IgG Fc F(ab')2, biotin human TSLP-his, SA-HRP. As for the experimental part: Briefly, 96-well micro plates were coated with 100 μL 2 μg/mL AffiniPure F(ab′)₂ Fragment Goat Anti-Human IgG, Fey fragment specific (Jackson Immuno Research, Cat #109-006-008) in PBS and incubated overnight at 4° C. Plates were washed 4 times with wash buffer (PBS+0.05% Tween-20, PBST) and then blocked with 200 μL/well blocking buffer (5% w/v non-fatty milk in PBST) for 2 hours at 37° C. […] After the final wash, the plates were incubated with 100 μL/well TMB (Innoreagents). The reaction was stopped 15 minutes later at room temperature with 50 μL/well 1M H₂SO₄, and the absorbance of each well was read on a microplate reader using dual wavelength mode with 450 nm for TMB and 630 nm as the reference wavelength. The OD (450-630) values were plotted against antibody concentration. Data was analyzed using Graphpad Prism and EC₅₀ values were reported.

By Kd is commonly meant the equilibrium constant for the complex coming apart. The koff is the first-order rate constant of dissociation. As a reminder, the kon is a measure of how fast the partners come together. Usually IC50 stands for the concentration needed to halve the response being measured. A word on the EC50: it is the concentration needed to bring the measured effect to its halfway point.

B1: BSI-502-003 (bispecific antibody, human IgG1, kappa)
heavy: EVQLVESGGGLVQPGGSLRLSCAASGFTFSTYGMSWVRQAPGKGLVWVATINSNGGSTSYPDSVKGRFTISRDNAKNTLYLQMNSLRAEDTAVYYCARFFRFRNAMDYWGQGTLVTVSSGGGGSGGGGSGGGGSGGGGSDIQMTQSPSSLSASVGDRVTITCRTSENIYSYLAWYQQKPGKAPKFLVYNAKTLAEGVPSRFSGSGSGTDFTLTISSLQPEDFATYYCQHYYGPPTWTFGQGTKVEIKGGGGSGGGGSQVQLVQSGAEVKKPGASVKVSCKASGYTFTTYWMHWVRQAPGQGLEWMGVIDPSDSDTTYNQKFKGRVTMTRDTSTSTVYMELSSLRSEDTAVYYCTRSLDGYYDYWGQGTLVTVSSASTKGPSVFPLAPSSKSTSGGTAALGCLVKDYFPEPVTVSWNSGALTSGVHTFPAVLQSSGLYSLSSVVTVPSSSLGTQTYICNVNHKPSNTKVDKKVEPKSCDKTHTCPPCPAPEAQGGPSVFLFPPKPKDTLYITREPEVTCVVVDVSHEDPEVKFNWYVDGVEVHNAKTKPREEQYNSTYRVVSVLTVLHQDWLNGKEYKCQVSNKALPAPIEKTISKAKGQPREPQVYTLPPSRDELTKNQVSLTCLVKGFYPSDIAVEWESNGQPENNYKTTPPVLDSDGSFFLYSKLTVDKSRWQQGNVFSCSVMHEALHNHYTQKSLSLSPG
light: DIQMTQSPSSLSASVGDRVTITCRPTENIYSYLAWYQQKPGKAPKLLIYFARTLAEGVPSRFSGSGSGTDFTLTISSLQPEDFATYYCQHHYGTPWTFGGGTKVEIKRTVAAPSVFIFPPSDEQLKSGTASVVCLLNNFYPREAKVQWKVDNALQSGNSQESVTEQDSKDSTYSLSSTLTLSKADYEKHKVYACEVTHQGLSSPVTKSFNRGEC
notes: hu1C5F12E9-V8 IgG with an anti-IL4R scFv (huC2C1A1A1-V15, VH-VL) at the N-terminus of the heavy chain; AQQ and YTE already stand in the entry
Turning to B1, in test [1], the Kd was determined as 2430 pM, the koff was 0.000534 s⁻¹ and the kon worked out at 220000 M⁻¹ s⁻¹. Further, in test [2], the dissociation constant Kd was found to be 0.317 pM, the koff amounted to 1.82e-07 s⁻¹ and the kon was determined as 574000 M⁻¹ s⁻¹. Further, the IC50 in test [3] was found to be 134 pM. For the same molecule, the EC50 in test [4] turned out to be 49.1 pM. In addition, in test [5], the “Inhibition on IL4 induced STAT6 phosphorylation (IC50, nM)” value stood at 0.0221 nM and the “Inhibition on IL13 induced STAT6 phosphorylation (IC50, nM)” value amounted to 0.0306 nM.

B2: BSI-502-001 (bispecific antibody, human IgG1, kappa)
heavy: EVQLVESGGGLVQPGGSLRLSCAASGFTFSTYGMSWVRQAPGKGLVWVATINSNGGSTSYPDSVKGRFTISRDNAKNTLYLQMNSLRAEDTAVYYCARFFRFRNAMDYWGQGTLVTVSSASTKGPSVFPLAPSSKSTSGGTAALGCLVKDYFPEPVTVSWNSGALTSGVHTFPAVLQSSGLYSLSSVVTVPSSSLGTQTYICNVNHKPSNTKVDKKVEPKSCDKTHTCPPCPAPEAQGGPSVFLFPPKPKDTLYITREPEVTCVVVDVSHEDPEVKFNWYVDGVEVHNAKTKPREEQYNSTYRVVSVLTVLHQDWLNGKEYKCQVSNKALPAPIEKTISKAKGQPREPQVYTLPPSRDELTKNQVSLTCLVKGFYPSDIAVEWESNGQPENNYKTTPPVLDSDGSFFLYSKLTVDKSRWQQGNVFSCSVMHEALHNHYTQKSLSLSPGKGGGGSGGGGSQVQLVQSGAEVKKPGASVKVSCKASGYTFTTYWMHWVRQAPGQGLEWMGVIDPSDSDTTYNQKFKGRVTMTRDTSTSTVYMELSSLRSEDTAVYYCTRSLDGYYDYWGQGTLVTVSSGGGGSGGGGSGGGGSGGGGSDIQMTQSPSSLSASVGDRVTITCRPTENIYSYLAWYQQKPGKAPKLLIYFARTLAEGVPSRFSGSGSGTDFTLTISSLQPEDFATYYCQHHYGTPWTFGGGTKVEIK
light: DIQMTQSPSSLSASVGDRVTITCRTSENIYSYLAWYQQKPGKAPKFLVYNAKTLAEGVPSRFSGSGSGTDFTLTISSLQPEDFATYYCQHYYGPPTWTFGQGTKVEIKRTVAAPSVFIFPPSDEQLKSGTASVVCLLNNFYPREAKVQWKVDNALQSGNSQESVTEQDSKDSTYSLSSTLTLSKADYEKHKVYACEVTHQGLSSPVTKSFNRGEC
notes: huC2C1A1A1-V15 IgG with an anti-TSLP scFv (hu1C5F12E9-V8, VH-VL) at the C-terminus of the heavy chain
Consider B2, for which, in test [1], the Kd is 3090 pM, the koff is 0.000497 s⁻¹ and the kon amounted to 161000 M⁻¹ s⁻¹. For the same molecule, in test [2], the Kd was under 24.6 pM, the koff was under 1e-05 s⁻¹ and the kon came to 407000 M⁻¹ s⁻¹. Besides, the IC50 in test [3] stood at 257 pM. Moreover, the EC50 in test [4] stood at 34.9 pM. For the same molecule, in test [5], the “Inhibition on IL4 induced STAT6 phosphorylation (IC50, nM)” value is 0.00703 nM and the “Inhibition on IL13 induced STAT6 phosphorylation (IC50, nM)” value stood at 0.0289 nM. In addition, the 50% effective concentration (EC50) in test [6] was 169 pM.

B3: BSI-502-002 (bispecific antibody, human IgG1, kappa)
heavy: EVQLVESGGGLVQPGGSLRLSCAASGFTFSTYGMSWVRQAPGKGLVWVATINSNGGSTSYPDSVKGRFTISRDNAKNTLYLQMNSLRAEDTAVYYCARFFRFRNAMDYWGQGTLVTVSSASTKGPSVFPLAPSSKSTSGGTAALGCLVKDYFPEPVTVSWNSGALTSGVHTFPAVLQSSGLYSLSSVVTVPSSSLGTQTYICNVNHKPSNTKVDKKVEPKSCDKTHTCPPCPAPEAQGGPSVFLFPPKPKDTLYITREPEVTCVVVDVSHEDPEVKFNWYVDGVEVHNAKTKPREEQYNSTYRVVSVLTVLHQDWLNGKEYKCQVSNKALPAPIEKTISKAKGQPREPQVYTLPPSRDELTKNQVSLTCLVKGFYPSDIAVEWESNGQPENNYKTTPPVLDSDGSFFLYSKLTVDKSRWQQGNVFSCSVMHEALHNHYTQKSLSLSPGKGGGGSGGGGSDIQMTQSPSSLSASVGDRVTITCRPTENIYSYLAWYQQKPGKAPKLLIYFARTLAEGVPSRFSGSGSGTDFTLTISSLQPEDFATYYCQHHYGTPWTFGGGTKVEIKGGGGSGGGGSGGGGSGGGGSQVQLVQSGAEVKKPGASVKVSCKASGYTFTTYWMHWVRQAPGQGLEWMGVIDPSDSDTTYNQKFKGRVTMTRDTSTSTVYMELSSLRSEDTAVYYCTRSLDGYYDYWGQGTLVTVSS
light: B2 light
notes: huC2C1A1A1-V15 IgG with an anti-TSLP scFv (VL-VH) at the C-terminus of the heavy chain; AQQ and YTE already stand in the entry
For the molecule B3, in test [1], the Kd came to 1510 pM, the koff was found to be 0.000487 s⁻¹ and the kon was 323000 M⁻¹ s⁻¹. Further, in test [2], the Kd was under 47.2 pM, the koff was under 1e-05 s⁻¹ and the kon turned out to be 212000 M⁻¹ s⁻¹. Moreover, in test [3], the IC50 was 758 pM. Also, in test [4], the EC50 worked out at 136 pM. In test [5], the “Inhibition on IL4 induced STAT6 phosphorylation (IC50, nM)” value was determined as 0.0129 nM and the “Inhibition on IL13 induced STAT6 phosphorylation (IC50, nM)” value worked out at 0.031 nM. Further, the EC50 in test [6] was determined as 369 pM.

For the origin of these results see patent US20260109758A1 (BIOSION, published 2026).
